Measured values published in the supplement of paper PMC11136658.

Test system: peptide library, one residue held at a place counted from the Y acceptor
Experiment: relative phosphorylation of the sub-library (ratio to the mean residue at this position); higher = residue favoured
How it was run: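 Within 384-well plates, purified recombinant kinases phosphorylated biotinylated Tyr-centred peptide library mixtures over 90 min using 50 μM ATP spiked with γ-32P-ATP; each mixture fixed one residue at one position from −5 to +5. Streptavidin membrane capture, rinsing, phosphorimaging and ImageQuant gave the intensities. These were normalized per position to the sum of the 18 randomized residues (16 for the Ser/Thr-free library) and multiplied by that number.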

Sequence of DDR1, construct: aa444-end, human (Q08345 444-913, looked up): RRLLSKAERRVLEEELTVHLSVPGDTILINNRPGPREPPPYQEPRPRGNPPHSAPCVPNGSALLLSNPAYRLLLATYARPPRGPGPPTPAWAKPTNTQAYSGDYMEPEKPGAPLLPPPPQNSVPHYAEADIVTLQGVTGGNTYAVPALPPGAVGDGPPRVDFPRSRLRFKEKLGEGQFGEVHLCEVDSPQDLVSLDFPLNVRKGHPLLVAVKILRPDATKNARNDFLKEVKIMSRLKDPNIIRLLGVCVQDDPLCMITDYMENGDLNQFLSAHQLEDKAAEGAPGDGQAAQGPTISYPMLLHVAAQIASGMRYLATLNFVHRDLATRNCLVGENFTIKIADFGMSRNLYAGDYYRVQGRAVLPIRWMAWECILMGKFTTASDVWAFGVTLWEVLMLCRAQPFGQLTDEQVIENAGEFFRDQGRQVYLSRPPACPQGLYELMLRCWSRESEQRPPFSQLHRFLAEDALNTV

DDR1, construct: aa444-end, human (from UniProt Q08345)
relative phosphorylation
Conditions	at +1	at +2	at +3	at +4	at +5	at -1	at -2	at -3	at -4	at -5
A fixed	1.61	0.998	0.762	0.858	0.675	1.07	1.08	1.02	1.18	1.16
D fixed	0.629	0.815	0.717	0.883	0.561	1.35	0.723	0.719	0.772	0.767
E fixed	0.665	1.36	0.716	0.964	0.549	0.785	0.748	0.717	0.798	0.759
F fixed	1.62	1.04	1.38	2.72	3.66	1.13	0.804	1.18	1.16	1.38
G fixed	0.639	0.629	0.633	0.621	0.701	0.7	1.07	0.946	1.05	1.06
H fixed	1.07	0.986	1.16	1.19	1.03	1.14	1.24	1.45	1.13	1.13
I fixed	0.955	1.1	1.63	1.01	1.49	0.938	0.721	0.828	0.716	0.728
K fixed	0.817	0.809	0.736	0.743	0.623	0.81	1.44	1.35	1.4	1.34
L fixed	0.781	1.42	1.56	0.985	1.21	0.958	0.794	0.773	0.81	0.736
M fixed	0.972	1.26	1.58	0.982	1.08	0.825	0.79	0.82	0.949	0.816
N fixed	0.846	0.891	0.755	0.75	0.586	2.03	1.24	1.05	0.924	1.03
P fixed	0.677	0.738	0.619	0.752	1.05	0.971	1.18	0.871	1.05	1.02
Q fixed	0.916	0.888	0.74	0.806	0.598	0.934	1.05	0.96	1.09	1.02
R fixed	0.963	0.845	0.784	0.807	0.732	0.806	1.63	1.49	1.48	1.44
S fixed	0.974	0.796	0.602	0.56	0.617	0.92	1.11	0.975	0.835	0.896
T fixed	1.14	0.912	0.744	0.678	0.667	0.835	0.904	0.91	0.829	0.853
V fixed	1.72	1.29	1.46	1.25	1.02	0.917	0.73	0.786	0.798	0.823
W fixed	1	1.22	1.43	1.44	1.14	0.886	0.747	1.15	1.03	1.04
pThr fixed	0.793	1.37	0.799	1.1	0.686	0.743	0.653	0.678	0.726	0.775
pTyr fixed	1.03	2	0.914	1.43	0.653	0.867	0.713	0.849	0.908	0.953
